Read-outs that look alike come from different tables or passages of the source.
What was measured:
[1] = molecular target: cynomolgus monkey CD32b (cynomolgus monkey)
[2] = molecular target: cynomolgus monkey CD32a (cynomolgus monkey)
[3] = molecular target: cynomolgus monkey CD32a (cynomolgus monkey); remark: listed apart in the source

Kd [1]: 1460 nM | Kd [2]: 3.13 µM | Kd [3]: 5.94 µM
Substance: Rituximab (antibody)
